{
  "source": "patent US20200354411A1",
  "about": "“Chimeric Molecule for Targeting c-Myc in Cells” (priority 2017, published 2020)",
  "origin": "cited, not measured here",
  "molecules": {"B1": {"name": "Omomyc: myc dominant negative peptide able to bind E-Box promoter and prevent c-myc binding, SEQ ID NO: 6 (peptide)", "chain": "TEENVKRRTHNVLERQRRNELKRSFFALRDQIPELENNEKAPKVVILKKATAYILSVQAETQKLISEIDLLRKQNEQLKHKLEQLRNSCA", "modifications": "Omomyc"}},
  "test_system": "A549 cells",
  "details": "shown in the art",
  "data": [
    {"molecule": "B1", "values": [
      {"measurement": "concentration at which treated cells showed apoptosis", "value": 10, "unit": "µM"}
    ]}
  ]
}
